Assay results as given in patent US20180155433A1 (GAMAMABS PHARMA, published 2018).

Legend:
[1] = molecular target: T1, Recombinant human HER3 extracellular domain (ECD) (human, UniProt P21860 20-643); assay: ELISA, recombinant human HER3 ECD coated at 50 ng/well, antibody from 3 nM to 6.5 pM, four-parameter fit
T1 construct: extracellular domain; Bought from R&D Systems; also called recombinant human HER3 ECD; HER3 receptor
Procedure: Nunc Maxisorp plates were coated with 50 ng/well recombinant human HER3 ECD for 16 hours at 4° C. and were blocked with 2% BSA in PBS. Anti-HER3 antibodies GMB301 and H4B-121-emb were serially diluted from 0.5 μg/ml to 1 ng/ml (3 nM to 6.5 pM) and incubated 1 hour at 37° C.

[2] = molecular target: T2, human HER3-Fc (recombinant HER3 extracellular domain Fc fusion, R&D systems) (human, UniProt P21860 20-643); assay: ELISA, HER3-Fc coated at 50 ng per well, GMB301 from 3.3 nM to 6.5 pM, HRP anti-human F(ab')2 detection
T2 construct: extracellular domain; Bought reagent (R&D Systems); Coated on plates at 50 ng per well; not shown: Fc part of the bought fusion (R&D Systems)
T2 sequence (P21860 20-643): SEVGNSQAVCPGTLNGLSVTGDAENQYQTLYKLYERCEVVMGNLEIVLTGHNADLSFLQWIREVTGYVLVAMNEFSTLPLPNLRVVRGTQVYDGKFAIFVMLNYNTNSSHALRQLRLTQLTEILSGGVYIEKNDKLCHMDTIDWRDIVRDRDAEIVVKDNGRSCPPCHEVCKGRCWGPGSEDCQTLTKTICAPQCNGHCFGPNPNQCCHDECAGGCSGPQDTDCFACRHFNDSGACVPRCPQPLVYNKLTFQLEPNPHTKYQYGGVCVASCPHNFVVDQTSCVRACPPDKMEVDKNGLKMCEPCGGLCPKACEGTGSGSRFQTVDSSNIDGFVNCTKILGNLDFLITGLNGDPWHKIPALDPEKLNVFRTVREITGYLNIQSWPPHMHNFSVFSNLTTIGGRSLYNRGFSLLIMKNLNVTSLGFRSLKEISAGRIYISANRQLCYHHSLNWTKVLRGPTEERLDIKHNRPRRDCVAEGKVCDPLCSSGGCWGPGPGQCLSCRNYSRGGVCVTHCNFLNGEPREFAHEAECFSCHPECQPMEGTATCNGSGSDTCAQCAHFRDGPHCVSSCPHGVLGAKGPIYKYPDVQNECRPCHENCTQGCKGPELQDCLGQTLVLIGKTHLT
Procedure: GMB301 was incubated for 1 hour at 37° C. in Maxisorp® plates (Nunc) coated wells with 50 ng human HER3-Fc (recombinant HER3 extracellular domain Fc fusion, R&D systems).
Bound GMB301 antibody were detected by a conjugated HRP-F(ab′)2 goat anti human IgG F(ab′)2 specific (Interchim). After two hours at 37° C. and three washes with PBS-Tween₂₀ 0.5%, TMB (3,3,5,5-tetramethylbenzidine, Sigma) was used as substrate for detecting HRP activity and 1M H₂SO₄ was added to stop the reaction and plate was read at 450 nm.

T1 sequence (P21860 20-643): as above

B1: GMB301 (chimeric low-fucose anti-human HER3 antibody) (antibody, human IgG1, kappa, V domains shown)
VH: EVKLVESGGGLVQPGGSLKLSCAASGFTFSSYTMSWVRQTPEKRLEWVAYISDGGGVTYYPDTIKGRFTISRDNAKNTLYLQMSSLKSEDTAMYYCARDRYGLFAYWGQGTLVTVSA
VL: DIVMTQSQKFMSTSVGDRVSITCKASQNVGIAVAWYQQKPGQSPKLLIYSASNRYTGVPDRFTGSGSGTDFTLTISNMQSEDLADYFCQQYSNYPYTFGGGTKLEIKR
modifications: low-fucose N-glycan (produced in YB2/0 cells)
notes: also called mAb GMB301; low-fucose chimerized antibody GMB301
In the case of B1, the EC50 [1] is reported as 0.19 nM and the EC50 [2] is reported as 0.19 nM.
